Results reported in patent EP1262190A1 (Takeda Chemical Industries, Ltd., dated 2001).
Where no end group is shown, it is not given here.

Tests used:
[1] = target: human 0T7T022 receptor (human); experiment: cell-based or functional assay
[2] = target: rat cerebellum-derived novel G protein-coupled receptor protein r0T7T022L (rat); experiment: cell-based or functional assay

Chain of human 0T7T022 receptor (human) (Q9GZQ6 whole entry): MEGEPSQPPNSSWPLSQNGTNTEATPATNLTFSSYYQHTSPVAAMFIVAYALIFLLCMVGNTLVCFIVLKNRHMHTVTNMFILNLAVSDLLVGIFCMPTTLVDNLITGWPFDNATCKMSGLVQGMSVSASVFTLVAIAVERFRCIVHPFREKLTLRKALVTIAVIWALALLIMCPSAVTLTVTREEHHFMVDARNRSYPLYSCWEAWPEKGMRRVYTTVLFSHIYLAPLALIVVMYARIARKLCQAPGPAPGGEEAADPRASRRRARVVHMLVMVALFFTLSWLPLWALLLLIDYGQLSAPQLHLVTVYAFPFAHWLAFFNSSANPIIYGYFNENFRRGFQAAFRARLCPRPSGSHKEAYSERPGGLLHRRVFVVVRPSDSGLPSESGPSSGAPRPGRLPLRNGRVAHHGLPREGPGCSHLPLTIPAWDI

Binder | ED50, inhibition of the cAMP level increased by forskolin [1] [nM] | IC50 of inhibiting the cAMP production (forskolin-stimulated) [2] [nM]
PQRF-NH2 [PQRFamide (peptide shown by Pro-Gln-Arg-Phe-NH2)] | ≥ 1000 | 
LPLRF-NH2 [LPLRFamide (peptide shown by Leu-Pro-Leu-Arg-Phe-NH2)] | 36 | 

Other lines, results leading:

ED50, inhibition of the cAMP level increased by forskolin [1] [nM] | IC50 of inhibiting the cAMP production (forskolin-stimulated) [2] [nM] | Binder
140 |  | NPFF [NPFF (peptide shown by Asn-Pro-Phe-Phe)]
4.5 | 0.5 | MPHSFANLPLRF-NH2 [peptide MPHSFANLPLRFamide (Met-Pro-His-Ser-Phe-Ala-Asn-Leu-Pro-Leu-Arg-Phe-NH2)]
